From article PMC6982183

Target: human Hsp60 wild type (human)
Experiment: SEC; Superdex 200 Increase 10/300 GL, 50 mM Tris-HCl (pH 7.8 at 25 °C), 2 mM DTT, 2 mM EDTA, 0.5 mg sample, 0.75 mL/min; size from calibration with molecular weight standards; before and after agitation

- stoichiometry N: 14
Substance: human Hsp60 wild type (natural protein)
